Residue numbers refer to the chain shown, from its start. Where two headings read alike, the source gives them in different places.
T1: BK virus VP1 protein, genotype I (BK virus, UniProt P03088 1-362)
T1 sequence: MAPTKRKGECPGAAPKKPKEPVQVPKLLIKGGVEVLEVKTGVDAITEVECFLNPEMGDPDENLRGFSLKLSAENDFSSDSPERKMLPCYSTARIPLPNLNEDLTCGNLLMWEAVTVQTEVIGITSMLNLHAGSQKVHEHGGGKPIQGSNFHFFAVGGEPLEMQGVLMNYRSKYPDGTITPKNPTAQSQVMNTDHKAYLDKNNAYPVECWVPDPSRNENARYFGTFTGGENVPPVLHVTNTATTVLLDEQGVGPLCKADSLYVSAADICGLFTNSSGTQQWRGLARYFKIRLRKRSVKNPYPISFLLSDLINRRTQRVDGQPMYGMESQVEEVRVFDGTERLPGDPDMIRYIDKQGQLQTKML

B1: 6E1 (antibody, V domains shown)
VH: EVQLLESGGGLVQPGGSLRLSCAASGFTFSSFAMSWVRQAPGKGLEWVSGISGSGGSTYYADSVKGRFTISRDNSKNTLYLQMNSLRAEDTAIYYCAKDKRNWNYGIDSFDFWGQGTMVTVSS
VL: DIQMTQSPSSLSASVGGRVTITCRTSQSISGYLNWYQQKAGKAPKLLIYATSNLQSGVPSRFTGSGSGTDFTLTISSLQPEDFAAYYCHQSHSPPFTFGPGTKVAFK
B2: 2B9 (antibody, V domains shown)
VH: EVQLLESGGGLAQPGKSLRLSCAASGFTFSGFAMSWVRQAPGKGLEWVSGISGSGDITYYADSVKGRFTISRDNSKSTLYLQMNSLGAEDTAVYYCAKDPYNWNHGVYGMDVWGQGTTVTVSS
VL: DIQMTQSPSSLSASVGDRVTITCRASQSISSYLNWYQQKPGKAPKFLIYGASSLQSGVPSRFSGSGSGTDFTLTISSLQPEDFAAYYCQQSFNAPLTFGGGTKVEIK
B3: 7E5 (antibody, V domains shown)
VH: B2 VH with A12I, K16G, A61G, G87R, A88D, E89A, A97G
VL: B2 VL with S31T, T72S, Q79H, E81G, A85T, F92Y, A94I
B4: 2A10 (antibody, V domains shown)
VH: EVQLVQSGAEVKKPGESLKISCKGSGYSFTYYWIGWVRQMPGKGLEWMGIIYPGDSDTRYSPSFQGQVTISADKSISTAYLQWSSLKASDTAMYYCTTHARNWNNVAYWGQGTLVTVSS
VL: DIQMTQSPSSLSASVGDRLTITCRASQNINTFLNWYQQNPGKAPKVLIYAASSLESGVPSRFSGSGSGTDFTLTISSLQPEDFATYYCQQSSSTPWTFGQGTKVEIK
B5: 2F11 (antibody, V domains shown)
VH: B4 VH with Y31N, I70L, S84N, T97A, N102S, N105Y, S118A
VL: DIQMTQSPSSLSASVGDRVTITCRASQSVNNFLNWYQQKPGTAPKLLIYAASSLQGGVPSRFSGSGSGTDFTLTISSLQPEDFATYYCQQSNTTPWTFGQGTKVEIK
B6: 9H9 (antibody, V domains shown)
VH: EVQLVESGGGLVQPGGSLRLSCAASGFTFSSYEMNWVRQAPGKGLEWVSYISSGGSSIKYADSVRGRFTFSRDNAENSVHLQMNSLRGEDTAVYYCARVGGSYYYSYAMDVWGQGTAVTVSS
VL: DIQLTQSPSFLSASVGDRVTITCWASQDISSYLAWYQQKPGKAPKLLIYAASTLQSGVPSRFSGSGSGTEFTLTISSLQPEDFATYYCQQPNNYPFSFGPGTKVDVK
B7: 4E6 (antibody, V domains shown)
VH: EVQLVESGGDLVQPGRSLRLSCAASGFTFDDYAMHWVRQGPGKGLEWVSGISWSGVTMGYADSVKGRFTISRDNAKNSLYLRMNSLRADDTAFYYCARGDGTNAFDIWGHGTMVTVSS
VL: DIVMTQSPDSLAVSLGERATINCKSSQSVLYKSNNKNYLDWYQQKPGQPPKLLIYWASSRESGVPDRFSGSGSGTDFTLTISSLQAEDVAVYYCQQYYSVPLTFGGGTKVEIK

Legend:
Experiment in all cases: cell-based or functional assay
[1] = biological target: BK virus VP1 protein, genotype II (BK virus)
[2] = biological target: BK virus VP1 protein, genotype III (BK virus)
[3] = biological target: BK virus VP1 protein, genotype IV (BK virus)
[4] = biological target: T1, BK virus VP1 protein, genotype I
[5] = biological target: BK virus VP1 protein, genotype II (BK virus); remark: listed apart in the source
[6] = biological target: BK virus VP1 protein, genotype III (BK virus); remark: listed apart in the source
[7] = biological target: BK virus VP1 protein, genotype IV (BK virus); remark: listed apart in the source
[8] = biological target: T1, BK virus VP1 protein, genotype I; remark: listed apart in the source
[9] = biological target: BK virus VP1 protein, genotype II (BK virus); remark: listed apart in the source
[10] = biological target: BK virus VP1 protein, genotype III (BK virus); remark: listed apart in the source
[11] = biological target: BK virus VP1 protein, genotype IV (BK virus); remark: listed apart in the source
[12] = biological target: T1, BK virus VP1 protein, genotype I; remark: listed apart in the source

| Binder | EC50, pseudovirus neutralization (mAb mixed with irrelevant isotype matched mAb M2) [1] [pM] | EC50, pseudovirus neutralization (mAb mixed with irrelevant isotype matched mAb M2) [2] [pM] | EC50, pseudovirus neutralization (mAb mixed with irrelevant isotype matched mAb M2) [3] [pM] | EC50, pseudovirus neutralization (mAb mixed with irrelevant isotype matched mAb M2) [4] [pM] | EC50, pseudovirus neutralization [5] [pM] | EC50, pseudovirus neutralization [6] [pM] | EC50, pseudovirus neutralization [7] [pM] | EC50, pseudovirus neutralization [8] [pM] | EC50, pseudovirus neutralization (mAb mixed with irrelevant isotype matched mAb M2) [9] [pM] | EC50, pseudovirus neutralization (mAb mixed with irrelevant isotype matched mAb M2) [10] [pM] | EC50, pseudovirus neutralization (mAb mixed with irrelevant isotype matched mAb M2) [11] [pM] | EC50, pseudovirus neutralization (mAb mixed with irrelevant isotype matched mAb M2) [12] [pM] | EC50, pseudovirus neutralization [1] [pM] | EC50, pseudovirus neutralization [2] [pM] | EC50, pseudovirus neutralization [3] [pM] |
| --- | --- | --- | --- | --- | --- | --- | --- | --- | --- | --- | --- | --- | --- | --- | --- |
| B1 | > 2000 | > 2000 | 21 | 0.78 | > 6670 | > 6670 | 9.5 | 2.95 | > 6670 | > 6670 | 49.6 | 0.67 |  |  |  |
| B2 |  |  |  |  | 154 | 80.8 | 148 |  | 44 | 5.4 | 10.8 |  | 61.3 | 6.8 | 11.4 |
| B3 |  |  |  |  | 1160 | 415 | 133 | 24.9 |  |  |  |  |  |  |  |
| B4 | 11.2 | 0.654 | 0.72 | > 2000 | 9.4 | 2.4 | 1.5 | > 6670 | 55.7 | 6.4 | 5.9 | > 6670 |  |  |  |
| B5 | 148 | 6.1 | 1.85 | > 2000 | 83.8 | 10.5 | 6.1 | > 6670 |  |  |  |  |  |  |  |
| B6 |  |  |  |  | 8.3 | 1140 | > 6670 | 8.7 |  |  |  |  |  |  |  |
| B7 |  |  |  |  | 2.1 | 29.6 | 19.7 | > 6670 |  |  |  |  |  |  |  |
